Consider 1 molecule from patent US20260061051A1 (JUNO THERAPEUTICS, published 2026).

The term Kd denotes the equilibrium constant for the complex coming apart. A higher Kd goes with a looser complex. As a reminder, the koff is the rate constant with which the complex falls apart. High values mean fast dissociation, low ones slow dissociation. What is called kon is a measure of how fast the partners come together. A lower kon goes with slow association. As usually defined, the EC50 is the concentration giving half of the maximal effect. Higher therefore signals weaker potency.

Test [1] addresses T1, Human DLL3 (hDLL3) antigen (human, UniProt Q9NYJ7 27-492).
T1 construct: Soluble analyte in SPR; also called hDLL3 protein; soluble target antigen DLL3
T1 sequence: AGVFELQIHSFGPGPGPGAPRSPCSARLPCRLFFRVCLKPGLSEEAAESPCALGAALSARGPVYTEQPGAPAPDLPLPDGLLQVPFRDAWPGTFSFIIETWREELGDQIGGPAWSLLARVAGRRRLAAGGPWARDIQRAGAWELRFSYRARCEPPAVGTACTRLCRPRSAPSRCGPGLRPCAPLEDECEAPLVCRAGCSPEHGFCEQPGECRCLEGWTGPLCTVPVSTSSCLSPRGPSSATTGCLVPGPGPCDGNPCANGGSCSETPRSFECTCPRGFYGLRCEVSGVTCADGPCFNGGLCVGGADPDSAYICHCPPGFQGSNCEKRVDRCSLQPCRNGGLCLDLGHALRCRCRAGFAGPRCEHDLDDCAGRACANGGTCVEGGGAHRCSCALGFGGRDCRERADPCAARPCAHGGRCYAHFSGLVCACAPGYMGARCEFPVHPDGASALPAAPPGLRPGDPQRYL
Put plainly: SPR, Biacore 8K, antibody captured on protein G chip, hDLL3 as analyte, multi-cycle. The protocol:
The Biacore SPR 8K machine was used for kinetics binding analysis. The sensor surface of a protein G chip (series s Cat #29179315) was used to capture the ligands. 2 μg/ml of purified anti-DLL3 antibody was diluted in running buffer (0.01M HEPES, 0.15 NaCl, 3 mM EDTA, 0.005% Tween-20). The diluted antibody was then injected at a flow rate of 10 μL/min for 60 seconds. Human DLL3 (hDLL3) antigen was diluted in the same running buffer to 6 concentrations (30, 10, 3.33, 1.11, 0.37 and 0 nM). hDLL3 was then injected on all channels (with each channel having its own reference point) at a flow rate of 30 uL/min for an association phase of 300 seconds, followed by 600 seconds of dissociation. 6 cycles of running analyte were repeated according to analyte concentrations in ascending order. After each cycle of interaction analysis, the sensor chip surface was regenerated completely with Glycine-HCL pH 1.5 at a flow rate of […] for 60 s. The binding of the anti-DLL3 antibody and hDLL3 protein was analyzed by multi-cycle method.
A general note: Surface plasmon resonance follows binding to a sensor surface in real time, without labels.

The target in test [2] is T2, Cynomolgus macaque (cyno) DLL3 expressed on 293H cells (cynomolgus macaque, UniProt Q9NYJ7 27-618 (human entry)).
T2 construct: also called Cyno DLL3 cell; cyno DLL3 ORF-GFP
T2 chain: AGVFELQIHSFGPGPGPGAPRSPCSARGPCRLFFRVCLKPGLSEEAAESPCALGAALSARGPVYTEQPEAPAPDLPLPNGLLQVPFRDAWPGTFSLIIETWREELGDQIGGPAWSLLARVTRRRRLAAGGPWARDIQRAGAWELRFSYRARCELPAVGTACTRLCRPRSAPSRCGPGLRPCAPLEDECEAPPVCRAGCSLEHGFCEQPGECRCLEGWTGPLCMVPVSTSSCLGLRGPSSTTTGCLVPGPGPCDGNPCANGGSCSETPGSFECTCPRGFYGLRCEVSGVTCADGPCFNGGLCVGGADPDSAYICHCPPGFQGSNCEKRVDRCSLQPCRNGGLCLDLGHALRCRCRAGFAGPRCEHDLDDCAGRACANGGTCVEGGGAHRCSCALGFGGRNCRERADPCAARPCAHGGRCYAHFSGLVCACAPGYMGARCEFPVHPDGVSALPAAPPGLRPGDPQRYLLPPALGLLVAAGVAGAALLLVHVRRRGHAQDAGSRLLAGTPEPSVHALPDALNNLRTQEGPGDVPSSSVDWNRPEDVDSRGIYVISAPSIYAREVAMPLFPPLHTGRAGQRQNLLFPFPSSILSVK
As to the kind of experiment: flow cytometry on 293H cells expressing cyno DLL3, Alexa 647 anti-human IgG1 secondary, 0.6 to 200 nM. The protocol: (§1) Human DLL3 or cynomolgus macaque (cyno) DLL3 expressing cell lines were established by transfecting 293H cells with human DLL3 ORF-GFP or cyno DLL3 ORF-GFP plasmids and selecting stable single clone. A dose response curve for the anti-DLL3 mAb-1 binding to 293H cells expressing either human DLL3 or cyno DLL3 was generated by flow cytometry. Cells were incubated with increasing concentrations of anti-DLL3 mAb-1 in the range of 0.6 to 200 nM. Cells were washed then incubated with a secondary antibody (Alexa 647 conjugated anti-human IgG1) to measure the amount of antibody bound to the 293H cells. A dose response curve was fitted from the data using the non-linear regression function in GraphPad Prism version 8. Half-maximal concentration (EC₅₀) value was calculated from the dose response curve.
On the technique in general: A flow cytometer gives signals particle by particle.

In test [3] the target is T3, Human DLL3 expressed on 293H cells (human, UniProt Q9NYJ7 27-618).
T3 construct: also called Human DLL3 cell; human DLL3 ORF-GFP
T3 sequence: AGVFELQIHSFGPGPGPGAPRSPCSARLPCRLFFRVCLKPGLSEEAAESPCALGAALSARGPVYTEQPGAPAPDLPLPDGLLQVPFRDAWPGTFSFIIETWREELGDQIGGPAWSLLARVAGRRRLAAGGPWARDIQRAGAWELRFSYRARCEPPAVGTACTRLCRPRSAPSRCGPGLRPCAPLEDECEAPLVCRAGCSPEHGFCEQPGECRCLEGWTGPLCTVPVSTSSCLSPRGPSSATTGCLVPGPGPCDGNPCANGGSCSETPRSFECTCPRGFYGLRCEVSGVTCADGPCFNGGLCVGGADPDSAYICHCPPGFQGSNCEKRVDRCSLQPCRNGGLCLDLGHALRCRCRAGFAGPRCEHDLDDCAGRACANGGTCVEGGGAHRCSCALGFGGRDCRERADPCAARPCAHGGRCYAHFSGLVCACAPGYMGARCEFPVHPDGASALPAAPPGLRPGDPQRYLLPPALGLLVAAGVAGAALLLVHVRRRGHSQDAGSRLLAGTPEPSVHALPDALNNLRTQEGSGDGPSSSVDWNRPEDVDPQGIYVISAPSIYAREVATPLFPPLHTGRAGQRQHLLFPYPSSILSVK
As to the kind of experiment: flow cytometry on 293H cells expressing human DLL3, Alexa 647 anti-human IgG1 secondary, 0.6 to 200 nM. The protocol: as §1

B1: DLL3-mAb-1 (antibody, human IgG1, kappa, V domains shown)
VH: QVQLQESGPGLVKPSQTLSLTCTVSGDSISSDGYYWSWIRQHPGKGLEWIGYIYYSGNTYYNPSLKSRVTISVDTSKNQFSLKLTSVTAADTAIYYCAIDTASALAYWGQGTLVTVSS
VL: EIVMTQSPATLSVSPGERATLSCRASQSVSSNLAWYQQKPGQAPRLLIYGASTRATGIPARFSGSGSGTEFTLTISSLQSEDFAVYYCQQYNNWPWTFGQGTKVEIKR
notes: It was captured on a protein G chip and detected with anti-human IgG1, and it is a fully human antibody with a fixed human kappa light chain; also called anti-DLL3 mAb-1; anti-DLL3 antibody DLL3-mAb-1
With B1, in test [1], the dissociation constant Kd came to 58.8 nM, the koff turned out to be 0.0137 s⁻¹ and the kon was 233000 M⁻¹ s⁻¹. In addition, the response in test [2] was half-maximal at 10.4 nM (EC50). This molecule also came in with an EC50 in test [3] of 15.6 nM.
